Among the data in paper PMC9876794 (2022) are Kd and binding score values, retold here.

First the molecules themselves.
B1: C2721 (antibody, V domains shown)
VH: EVQLVESGGGLIQPGGSLRLSCAASGFTVSSNYMSWVRQAPGKGLEWVSVIYSGGSTYYADSVKGRFTISRDNSKNTLYLQMNSLRAEDTAVYYCARDMGGDAFDIWGQGTMVTVSS
VL: DIQLTQSPSFLSASVGDRVTITCRASQGISSYLAWYQQKPGKAPKLLIYAASTLQSGVPSRFSGSGSGTEFTLTISSLQPEDFATYYCQQLNSYPFFGGGTKVEIK
B2: C2719 (antibody, V domains shown)
VH: B1 VH with M99L, G101P, D102Y, A103G, F104M, I106V, M112T
VL: DIQLTQSPSFLSASVGDRVTITCRASQGISSYLAWYQQKPGKAPKLLIYAASTLQSGVPSRFSGSGSGTEFTLTISSLQPEDFATYYCQQLNSYPPEIGQGTRLEIK
B3: C2748 (antibody, V domains shown)
VH: QVQLVQSGAEVKKPGSSVKVSCKASGGTFTNYAISWVRQAPGQGLEWMGGIIPIFGTEDYAQRFQGRVTITADESTSTAYMELTSLTSEDTAVYFCARGLPLTVTTRRRFNFFDYWGQGTLVTVSS
VL: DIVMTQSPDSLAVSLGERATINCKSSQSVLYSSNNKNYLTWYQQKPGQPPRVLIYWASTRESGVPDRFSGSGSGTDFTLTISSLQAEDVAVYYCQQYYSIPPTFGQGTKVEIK
B4: D164 (antibody, V domains shown)
VH: QVQLVQSGAEVKKPGASVKVSCKASGYTFTSYYMHWVRQAPGQGLEWMGIINPSGGSTSYAQKFQGRVTMTRDTSTSTVYMELSSLRSEDTAVYYCARGGIVPAATENFDYWGQGTLVTVSS
VL: EIVLTQSPATLSLSPGERATLSCRASQSVSSYLAWYQQKPGQAPRLLIYDASNRATGIPARFSGSGSGTDFTLTISSLEPEDFAVYYCQQRSNWPITFGQGTRLEIK
B5: C2724 (antibody, V domains shown)
VH: not shown
VL: B4 VL with W94C, I96L, Q100G, R103K, L104V
B6: C2727 (antibody, V domains shown)
VH: EVQLVESGGGLIQPGGSLRLSCAASGFTVSSNYMSWVRQAPGKGLEWVSVIYSGGSTYYADSVKGRFTISRDNSKNTLYLQMNSLRAEDTAVYYCAREGPQKTDWGQGTLVTVSS
VL: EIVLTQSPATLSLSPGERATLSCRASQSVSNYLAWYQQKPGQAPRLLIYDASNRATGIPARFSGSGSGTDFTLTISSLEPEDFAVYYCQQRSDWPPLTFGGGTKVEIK
B7: D046 (antibody, V domains shown)
VH: EVQLVESGGGLVQPGGSLRLSCAASGFTFSSYWMHWVRQAPGKGLVWVSRINSDGSSTSYADSVKGRFTISRDNAKNTLYLQMNSLRAEDTAVYYCARGVPHDYGDYESVILAGYYYYYYGMDVWGQGTTVTVSS
VL: not shown
B8: C2699 (antibody, V domains shown)
VH: QLQLQESGPGLVKPSETLSLTCTVSRGSISSSSYYWGWIRQPPGKGLEWIGSIYYSGNTYYNPSLKSRVTISVDTSNNQFFLKLSSVTAADTAVYYCARRPNSGWGYWYFDLWGRGTLVTVSS
VL: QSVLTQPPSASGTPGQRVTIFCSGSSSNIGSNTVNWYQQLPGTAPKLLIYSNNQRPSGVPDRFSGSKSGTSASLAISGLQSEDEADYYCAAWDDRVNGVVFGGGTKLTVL
B9: C2736 (antibody, V domains shown)
VH: QVQLVQSGAEVKKPGSSVKVSCKASGGTFSSYAISWVRQAPGQGLEWMGGIIPIFGTANYAQKFQGRVTITADESTSTAYMELSSLRSEDTAVYYCASCRYYYDSSGYAQPEDYFDYWGQGTLVTVSS
VL: QSVLTQPPSVSGAPGQRVTISCTGSSSNIGAGYDVHWYQQLPGTAPKLLIYGNSNRPSGVPDRFSGSKSGTSASLAITGLQAEDEADYYCQSYDSSLSGSHVVFGGGTKLTVL
B10: D159 (antibody, V domains shown)
VH: QVQLVESGGGVVQPGGSLRLSCAASGFTFSTYGMHWVRQAPGKGLEWVAFIQYDGSNKYYADSVKGRFTISRDNSKNTLCLQMNTLRAEDTAVYYCAKDLYYYGSGSYFDYWGQGTLVTVSS
VL: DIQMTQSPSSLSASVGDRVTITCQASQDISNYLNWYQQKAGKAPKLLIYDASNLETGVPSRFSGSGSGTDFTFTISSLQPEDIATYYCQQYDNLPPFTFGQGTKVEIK
B11: D064 (antibody, V domains shown)
VH: EVQLVQSGAEVKKPGESLKISCKGSGYSFTSYWIGWVRQMPGKGLEWMGIIYPGDSDTRYSPSFQGQVTISADKSISTAYLQWSSLKASDTAMYYCASHAGGYDFDYYYMDVWGKGTTVTVSS
VL: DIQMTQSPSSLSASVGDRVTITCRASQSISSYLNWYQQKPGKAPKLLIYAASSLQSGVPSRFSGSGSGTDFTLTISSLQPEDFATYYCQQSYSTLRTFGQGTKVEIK
B12: D147 (antibody, V domains shown)
VH: QVQLVESGGGVVQPGRSLRLSCAASGFTFSSYGMYWVRQAPGKGLEWVAVISYDGSNKYYADSVKGRFTISRDNSKNTLYLQMNSLRAEDTAVYYCAKGGGEYCSGGNCYSSYFDYWGQGTLVTVSS
VL: not shown
B13: D049 (antibody, V domains shown)
VH: EVQLVQSGAEVKKPGESLKISCKGSGYSFISHWIGWVRQMPGKGLEWMGIIYPGDSDTRNSPSFQGQVTISADKSISTAYLQWSSLKASDTAMYYCARLLGSNYEVGFDYWGQGTLVTVSS
VL: not shown
B14: B33 (antibody, V domains shown)
VH: EVQLQQSGPELVKPGTSVKISCKASGYSFTGYYMNWVKQSPEKSLEWIGEINPSTGGTTYNQKFKAKATLTVDKSSSTAYMQLKSLTSEDSAVYYCARADYWGQGTTLTVSS
VL: DIVLTQSPASLAVSLGQRATISCRASESVEYYVTSLMQWYQQKPGQPPKLLIYAASNVESGVPARFSGSGSGTDFSLNIHPVEEDDIAMYFCQQSREVPYTFGGGTKLEIK
B15: B03 (antibody, V domains shown)
VH: EVQLQQSGPELVKPGASVKISCKASGYSFTGYYMNWVKQSPEKSLEWIGEINPSTGGATYNQKFKAKATLTVDKSSSTASMQLKSLTSEDSAVYYCARAAGDYWGQGTTLTVSS
VL: B14 VL with V33G, E97K, Y100W
B16: A24 (antibody, V domains shown)
VH: DVQLQESGPGLVKPSQSLSLTCSVTGYSITSGYYWNWIRQFPGNKMEWMGYITYDGRNTYNPSPKNRLSITRDTSKNQFFLKLNSVTTEDTATYYCARCHYYGSSYAMDYWGQGTSVTVSS
VL: DIVMTQSHKFMSTSVGDRVSITCKASQDVSTAVAWYRQKPGQSPKLLIYWASTRHTGVPDRFTGSGSGTDYTLTISSVQPEDLALYYCQQHYTTPLTFGAGTKLELK
B17: B05 (antibody, V domains shown)
VH: QVQLKQSGAELVRPGASVKLSCKASGYTFTDYYINWVKQRPGQGLEWIARIYPGSGNPYYNEKFKGKATLTAEKSSSTAYMQLSSLTSEDSAVYFCARRGTLLYAFAYWGQGTLVTVSA
VL: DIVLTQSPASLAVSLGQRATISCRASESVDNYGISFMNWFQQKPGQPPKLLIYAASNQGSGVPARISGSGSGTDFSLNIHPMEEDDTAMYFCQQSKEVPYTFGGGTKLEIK
B18: B27 (antibody, V domains shown)
VH: EVKLEESGGGLVQPGGSMKLSCAASGFTFSDAWMDWVRQSPEKGLEWVAEIRNKANNHATYYAESVKGRFTISRDDSKSSVYLQMNSLRAEDTGIYYCTNYKYYAMDYWGQGTSVTVSS
VL: QIVLTQSPAIMSASPGEKVTMTCSASSSVSYMYWYQQKPGSSPRLLIYDTSNLASGVPVRFSGSGSGTSYSLTISRMEAEDAATYYCQQWSSYPLTFGAGTKLELK
B19: B22 (antibody, V domains shown)
VH: EVKLEESGGGLVQPGGSMKLSCAASGFTFSDAWMDWVRQSPEKGLEWVAEIRNKANNHAIYYAESVKGRFTISRDDSKSSVYLQMNSLRAEDTGIYYCILFLTGHFDYWGQGTTLTVSS
VL: DIVMTQSQKFMSTSVGDRVSITCKASQNVRTAVVWYQEKPGQSPKTLIYLASNRHTGVPDRFTGSGSGTDFTLTISNVQSEDLADYFCLQHWNYPLTFGSGTKLEIK
B20: B07 (antibody, V domains shown)
VH: QVQLQQSGPELVKPGASVKISCKASGYVFSSSWMNWVKQRPGKGLEWIGRIYPGDGETNYNGKFKGKATLTADKSSSTAYMQLSSLTSEDSAVYFCARFDYGYDGHVWGTGTTVTVSS
VL: DIVMTQSQKFMSTSVGDRVSVTCKASQNVGTNVAWYQQKPGQSPKALIYSASYLYSGVPDRFTGSGSGTDFTLTISNVQSEDLAEYFCQQYNSYPLLTFGAGTKLELK
B21: A47 (antibody, V domains shown)
VH: HVQLQQPGAELVKPGASVKVSCKASGYTFTSFWMHWVKQRPGQGLEWIGGIHPSDSDTNYNQKFKGKATLTVNKSSSTAYMQLSSLTSEDSAVYYCAIGDECANWGQGTLVTVSA
VL: DIVLTQSPASLAVSLGQRATISCRASKSVSTSGYSYMHWYQQKPGQPPKLLIYLASNLESGVPARFSGSGSGTDFTLNIHPVEEEDAATYYCHHSRELPFTFGSGTKLEIK
B22: B32 (antibody, V domains shown)
VH: QVQLQQSGPELVKPGASVKISCKASGYAFSSSWMNWVKQRPGKGLEWIGRIYPGDGDTNYNGKFKGKATLTADKSSSTAYMQLSSLTSEDSAVYFCARELDPPWGQGTTLTVSS
VL: DILMTQSPSSMSVSLGDTVSITCHASQGISSNIGWLQQKPGKSFKGLIYHGTNLEDGVPSRFCGSGSGADYSLTISSLESEDFADYYCVQYAQFPFTFGSGTKLEIK
B23: A09 (antibody, V domains shown)
VH: QVQLQQPGAELVKPGASVKVSCKASGYTFTSYWMHWVKQRPGQGLEWIGRIHPSDSDTNYNQKFKGKATLTVDKSSSTAYMQLSSLTSEDSAVYSCARGMDYWGQGTSVTVSS
VL: DVVLTQTPLSLPVNIGDQASISCKSTKSLLNSVGFTYLDWYLQKPGQSPQLLIYLVSNRFSGVPDRFSGSGSGTDFTLKISRVEAEDLGVYYCFQSNYLPYTFGGGTKLEIK

Where a chain is given by its changes, count along the chain named.

One assay concerns the target T1, SARS-CoV-2 spike RBD (WT) (Severe acute respiratory syndrome …, UniProt P0DTC2). Description: BLI.
As for B1, the Kd was found to be 98.5 nM.

In turn, B2 showed a Kd of 127 nM.

B3 yielded a Kd of 2.4 nM.

B4 registered a Kd of 194 nM.

Molecule B5 came in with a dissociation constant Kd of 174 nM.

Consider B6, for which binding was put at a Kd of 99.6 nM.

With B7, the Kd was 42.4 nM.

B8 returned a Kd of 74 nM.

For B9, the Kd came out at 6.14 nM.

The molecule B10 came in with a Kd of 16.9 nM.

B11: the Kd was 344 nM.

Take B12: the Kd is 94.2 nM.

B13 had a Kd of 9.69 nM.

In a further assay the target is T1, SARS-CoV-2 spike RBD (WT). Description: ELISA. The arrangement: unit not given here.
The molecule B1 gave a binding score of 174.

B2 registered a binding score of 59.3.

Regarding B3, the binding score came to 11.7.

B4 yielded a binding score of 63.2.

Turning to B5, the binding score came to 604.

For B6, the binding score came out at 20.

In turn, B7 returned a binding score of 6.02.

Regarding B8, the binding score stood at 334.

As for B9, the binding score is 79.9.

The molecule B10 showed a binding score of 59.9.

As for B11, the binding score amounted to 1230.

The molecule B12 returned a binding score of 7.89.

In turn, B13 returned a binding score of 6.28.

The next assay deals with T1, SARS-CoV-2 spike RBD (WT). Description: BLI. The source holds these as a separate data set.
B14: the Kd worked out at 72.7 nM.

Regarding B15, binding was put at a Kd of 52.6 nM.

B16 registered a Kd of 205 nM.

In turn, B17 had a Kd of 68.5 nM.

B18 had a dissociation constant (Kd) of 120 nM.

Take B19: the affinity, expressed as Kd, was 269 nM.

For the molecule B20, the Kd was determined as 17700 nM.

The molecule B21 returned a Kd of 142 nM.

As to B22, the dissociation constant (Kd) amounted to 95.8 nM.

On to B23, for which the affinity, expressed as Kd, was 30.2 nM.
